One experiment concerns the target MBP-SHLD2(1–60) (human) (UniProt Q86V20). In words: ITC; ITC200, 25 °C, 20 mM Tris pH 8.0, 150 mM NaCl, 1% glycerol, 1 mM TCEP; one set of sites model. (ITC needs no label: the signal is the heat of the interaction.)
Another experiment addresses REV7^K129A (human) (UniProt Q9UI95). In words: ITC; in the context of MBP-SHLD2(1-60) (Supplementary Fig. 5a, b).

Chain of MBP-SHLD2(1–60) (human) (Q86V20 1-60): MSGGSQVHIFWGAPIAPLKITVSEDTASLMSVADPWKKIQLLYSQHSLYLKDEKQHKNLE
Chain of REV7^K129A (human) (Q9UI95 whole entry K129A): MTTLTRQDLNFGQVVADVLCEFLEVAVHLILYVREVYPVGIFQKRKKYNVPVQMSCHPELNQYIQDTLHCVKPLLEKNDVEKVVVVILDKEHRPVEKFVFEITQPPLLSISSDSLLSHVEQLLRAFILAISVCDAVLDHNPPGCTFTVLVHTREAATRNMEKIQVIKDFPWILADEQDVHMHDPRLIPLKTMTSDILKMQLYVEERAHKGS

Broadly, the Kd is the concentration at which binding is half-saturated. A higher Kd goes with a looser complex. “REV7^W171A-SHLD3(1–82) (from UniProt Q9UI95 1-211; Q6ZNX1 1-82) (complex)” came in with a Kd in the experiment with MBP-SHLD2(1–60) (human) of 59 nM.

The substance “REV7^K129A-SHLD3(1–82) (from UniProt Q9UI95 1-211; Q6ZNX1 1-82) (complex)” came in with a Kd with REV7^K129A (human) of 410 nM. “REV7^Y63A-SHLD3(1–82) (from UniProt Q9UI95 1-211; Q6ZNX1 1-82) (complex)”: the Kd with MBP-SHLD2(1–60) (human) was 600 nM.

(Values after publication PMC7181697.)
